Experimental data taken from article PMC8218332 (Cell, 2021).

B1: mAb 384 (antibody, V domains shown)
VH: EVQLVESGGGLVKPGESLRLSCAASGFTFSDYYMTWIRQAPGKGLEWVSYIRSSGHTIYYADSVKGRFTISRDNAKNSLYLQMNSLRVEDTAVYYCARGGVLRFLEWPLNAFDIWGQGTMVTVSS
VL: DIQLTQSPSSLSASVGDRVTITCRASQGISNYLAWYQQKPGKVPKLLIYAASTLQSGVPSRFSGSGSGTDFTLTISSLQPEDVATYYCQKYNNALGTFGQGTKVEIK
notes: copies: 2 + 2
B2: mAb 316 (antibody, V domains shown)
VH: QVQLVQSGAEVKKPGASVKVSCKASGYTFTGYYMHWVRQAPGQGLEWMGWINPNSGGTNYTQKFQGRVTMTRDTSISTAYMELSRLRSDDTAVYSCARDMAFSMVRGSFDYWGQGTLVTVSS
VL: QAVLTQPPSASGSPGQSVTISCTGTSSDVGGYNYVSWYQQHPGKAPKLMIYEVSKRPSGVPDRFSGSKSGNTASLTVSGLQAEDEADYYCSSYAGSNHWVFGGGTKLTVL
notes: copies: 2 + 2
B3: mAb 278 (antibody, V domains shown)
VH: QVQLVQSGAEVKKPGASVKVSCKASGYIFIRYGISWVRQAPGQGLEWMGWISANNGYTNYAQKLQGRVTMTTDTSTSTAYMELRSLRSDDTAVYYCARDGGILTGYLDYFDHWGQGTLVTVSS
VL: DIQMTQSPSSLSASVGDRLTITCRASQSIASYLNWYQQKPGKAPKLLIYAASSLQSGVPSRFSGSGSGTDFTLTISSLQPEDFATYHCQQSYSTLGITFGPGTKVDIK
notes: copies: 2 + 2
B4: REGN10987 (antibody, V domains shown)
VH: QVQLVESGGGVVQPGRSLRLSCAASGFTFSNYAMYWVRQAPGKGLEWVAVISYDGSNKYYADSVKGRFTISRDNSKNTLYLQMNSLRTEDTAVYYCASGSDYGDYLLVYWGQGTLVTVSS
VL: QSALTQPASVSGSPGQSITISCTGTSSDVGGYNYVSWYQQHPGKAPKLMIYDVSKRPSGVSNRFSGSKSGNTASLTISGLQSEDEADYYCNSLTSISTWVFGGGTKLTVL
notes: source: provided by AstraZeneca; copies: 2 + 2
B5: mAb 88 (antibody, V domains shown)
VH: QLQLQESGPGLVKPSQTLSLTCTVSGGSISSGSYNWTWIRQPAGKGLEWIGRIYNSGSTNYNPSLKSRVTISVDTSKNQLSLKVRSVTAADTAVYYCARHCSGGTCYPKYYYGMDVWGQGTTVTVSS
VL: QSALTQPPSVSEAPRQRVTISCSGSSSNIGNNAVNWYQQFPGKAPKLLIYYDDLLPSGVSDRFSGSKSGTSASLAISGVQSEDEADYYCAAWDDSLNVVVFGGGTKLTVL
notes: copies: 2 + 2
B6: mAb 222 (antibody, V domains shown)
VH: EVQLVESGGGLIQPGGSLRLSCAASGLTVSSNYMSWVRQAPGKGLEWVSVIYSGGSTFYADSVKGRFTISRDNSKNTLYLQMNSLGAEDTAVYYCARGEGSPGNWFDPWGQGTLVTVSS
VL: DVVMTQSPGTLSLSPGERATLSCRASQSVPSSYLAWYQQKPGQAPRLLIYGASTRATGIPDRFSGSGSGTDFTLTISRLEPEDFAVYYCQHYDTSPRFGGGTKVDIK
notes: copies: 2 + 2

target: His-tagged SARS-CoV-2 RBD (Victoria RBD) (SARS-CoV-2, Victoria/Wuhan-Hu-1 (same …, UniProt P0DTC2)); test: BLI; conditions: both partners purified

For B1, which Kd is on record?
The Kd was 0.65 nM.

B2 was tested. Which Kd did it give?
Its Kd is 0.38 nM.

For B3, which Kd is on record?
Its Kd is 1.6 nM.

Which Kd does the source give for B4 here?
Its Kd is 0.38 nM.

With B5 as the binder, how does the Kd read?
Its Kd is 4.4 nM.

Which Kd does the source give for B6 here?
The Kd was 0.25 nM.
